B1: com-pmiR397b-G-box (dsDNA)
DNA 1: GTACTTTGTCACGTCCTGATCGAT
DNA 2: ATCGATCAGGACGTGACAAAGTAC
B2: bio-pmiR397b-G-box (dsDNA)
DNA 1: GTACTTTGTCACGTCCTGATCGAT
DNA 2: ATCGATCAGGACGTGACAAAGTAC
B3: bio-pCPS2-N-box (dsDNA)
DNA 1: TTTCACAATCACGAGCTAGACTAA
DNA 2: TTAGTCTAGCTCGTGATTGTGAAA

Experiments:
bHLH25 [1] = molecular target: T1, bHLH25 (Oryza sativa (Nipponbare), UniProt Q5SMX4 1-439); assay: competition; unlabeled competitor of N1; 10 mM Tris-HCl pH 7.5, 50 mM KCl, 50 ng/mL poly(dI-dC), 1 mM DTT, ~0.5 ug GST protein in 10 uL, 0.5 uM pmiR397b-G-box or 0.1 uM pCPS2-N-box biotin probe; temperature not stated; details: protein: recombinant; tags: GST-SUMO (pGEX-6p-1-SUMO); chain copies: 2
bHLH25 [2] = molecular target: T1, bHLH25; assay: EMSA; 10 mM Tris-HCl pH 7.5, 50 mM KCl, 50 ng/mL poly(dI-dC), 1 mM DTT, ~0.5 ug GST protein in 10 uL, 0.5 uM pmiR397b-G-box or 0.1 uM pCPS2-N-box biotin probe; temperature not stated; details: protein: recombinant; tags: GST-SUMO (pGEX-6p-1-SUMO); chain copies: 2; label: 5' biotin
bHLH25 M256V = bHLH25 M256V (Oryza sativa (Nipponbare), UniProt Q5SMX4 1-439, M256V); assay: as above; details: protein: recombinant; tags: GST-SUMO; chain copies: 2; label: 5' biotin
Sequence of bHLH25 M256V (Q5SMX4 entry or part of it M256V | M256V M256V): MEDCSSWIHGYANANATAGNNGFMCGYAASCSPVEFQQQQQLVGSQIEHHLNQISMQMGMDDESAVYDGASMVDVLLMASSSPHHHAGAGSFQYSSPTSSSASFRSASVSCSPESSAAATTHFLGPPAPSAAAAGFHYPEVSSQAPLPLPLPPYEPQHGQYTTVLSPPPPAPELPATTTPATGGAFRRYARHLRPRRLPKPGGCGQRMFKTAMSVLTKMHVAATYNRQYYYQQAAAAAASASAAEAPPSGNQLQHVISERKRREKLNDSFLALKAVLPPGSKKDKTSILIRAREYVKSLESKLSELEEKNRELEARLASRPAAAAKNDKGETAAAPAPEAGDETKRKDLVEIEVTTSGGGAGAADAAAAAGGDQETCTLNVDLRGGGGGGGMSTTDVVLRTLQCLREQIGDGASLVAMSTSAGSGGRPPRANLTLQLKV

T1 sequence (Q5SMX4 entry or part of it): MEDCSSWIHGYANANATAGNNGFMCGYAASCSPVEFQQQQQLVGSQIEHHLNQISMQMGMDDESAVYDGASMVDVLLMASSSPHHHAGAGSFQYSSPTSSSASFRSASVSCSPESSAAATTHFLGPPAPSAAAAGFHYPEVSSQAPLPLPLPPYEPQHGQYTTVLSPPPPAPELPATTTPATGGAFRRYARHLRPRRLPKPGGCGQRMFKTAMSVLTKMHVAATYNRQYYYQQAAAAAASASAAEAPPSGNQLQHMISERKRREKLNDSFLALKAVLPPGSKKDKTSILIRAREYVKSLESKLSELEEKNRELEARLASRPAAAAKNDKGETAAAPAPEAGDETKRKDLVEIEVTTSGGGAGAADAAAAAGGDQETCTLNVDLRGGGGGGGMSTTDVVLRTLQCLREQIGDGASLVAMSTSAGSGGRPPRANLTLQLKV

Row | Binder | binding result (bHLH25 [1]) | binding result (bHLH25 [2]) | binding result (bHLH25 M256V)
1 | B1 | binds |  | 
2 | B2 |  | binds | no binding
3 | B3 |  | binds | no binding
